Here are results for two molecules from patent publication US20230183353A1 (ZYDUS LIFESCIENCES, published 2023).

In assay [1] the target is T1, recombinant human neonatal Fc receptor (rhFcRn) (human, UniProt P55899 24-297; P61769 21-119).
T1 construct: Bought recombinant protein (Sino Biologics), immobilised on a GLC chip; also called Human FcRn; FcRn/FcGRT
Nature of the assay: SPR (ProteOn XPR36), rhFcRn immobilised on GLC chip, pH 6.0, 25 C. Here is the method: The kinetic constants for the binding of Fc variants to recombinant human neonatal Fc receptor (rhFcRn) were determined by Surface Plasmon Resonance-based measurement using the ProteOn™ XPR36 (Bio-Rad). The rhFcRn receptor (Sino Biologics) was immobilized on a GLC chip following manufacturer's instruction. 10 mM phosphate buffer saline (PBS) (10 mM phosphate buffer, pH 6.0, 150 mM NaCl, with 0.005% Tweet 20) was used as running buffer to carry out the kinetic measurements. […] Reactions were carried in PBS (pH 6.0, 0.005% surfactant P20) at 25° C. After each sample run, the chip surface was regenerated using two pulses of PBS (0.005% surfactant P20), pH 7.4, followed by one pulse of glycine buffer pH 1.5. The data, in the form of sensograms, was analysed using the data-fitting programs in the ProteOn™ system.

The target of assay [2] is recombinant mouse FcRn (mouse, UniProt Q61559 22-297). Nature of the assay: SPR (ProteOn XPR36), FcRn immobilised on GLC chip by amine coupling, pH 6.0, 25 C. As for the experimental part:
(§1) In this experiment, binding of the Fc variant of the current invention to FcRn of different species was determined by surface plasmon resonance-based measurement using the ProteOn™ XPR36 (Bio-Rad). […] Fc variant used to conduct this experiment was produced using CHO cell as an expression system. FcRn (of different species) was immobilized on a GLC sensor chip surface using a standard amine coupling chemistry, and essentially, following the manufacturers' instruction. 10 mM phosphate buffered saline (PBS) (10 mM phosphate buffer, pH 6.0, 150 mM NaCl, 0.005% Tween 20) was used as the running buffer to carry out the kinetic measurements. To measure the association rate constant (kassoc) and dissociation rate constant (kdissoc), five dilutions of Fc muteins were prepared in above mentioned running buffer and injected at a flow rate of 100 μL/min with an association time of 180 s and dissociation time of 600 s. All the reactions were carried at 25° C. After each sample run, the chip surface was regenerated using PBST, pH 7.4. The data, in the form of sensorgrams, was analyzed using the data-fitting programs in the ProteOn™ system.

The target in assay [3] is recombinant monkey FcRn (monkey). The description is as above. Here is the method: as §1
Assay [4] has as its target T1, recombinant human neonatal Fc receptor …. The description is as above. Here is the method: as §1
Assay [5] addresses T2, recombinant human FcγRIIIa (Phe) (human, UniProt P08637 17-208, limits assumed).
T2 construct: Directly immobilised on a GLC chip by amine coupling; also called FcγRIIIa F158; CD16a
Nature of the assay: SPR (ProteOn), receptor immobilised on GLC chip by amine coupling, pH 7.4, 25 C. Here is the method: (§2) In this experiment, the kinetic constants for the binding of Fc variant to recombinant Fc gamma receptors were determined by Surface Plasmon Resonance-based measurement using the ProteOn™ […] (Bio-Rad). […] All the recombinant human Fc receptors were directly immobilized on a GLC sensor chip surface using a standard amine coupling chemistry, and essentially, following the manufacturers' instruction. 10 mM phosphate buffered saline (PBS) (10 mM phosphate buffer, pH 7.4, 150 mM NaCl, with 0.005% Tween 20) was used as the running buffer to carry out the kinetic measurements for all the Fc receptor. To measure the association rate constant (kassoc) and dissociation rate constant (kdissoc), five dilutions of Fc variants were prepared in above mentioned running buffer and injected at a flow rate of 50 μL/min. Association time and dissociation time at each interaction is mentioned in table below. All the reactions were performed at 25° C. The data, in the form of sensorgrams, were analyzed using the data-fitting programs available with the ProteOn™ system.

Assay [6] addresses T3, recombinant human FcγRIIIa (Val) (human, UniProt P08637 17-208, limits assumed).
T3 construct: Directly immobilised on a GLC chip by amine coupling; also called FcγRIIIa V158; CD16a
Described as above. As for the experimental part:
as §2

T1 sequence (P55899 24-297 limits assumed, chain 1 of 2): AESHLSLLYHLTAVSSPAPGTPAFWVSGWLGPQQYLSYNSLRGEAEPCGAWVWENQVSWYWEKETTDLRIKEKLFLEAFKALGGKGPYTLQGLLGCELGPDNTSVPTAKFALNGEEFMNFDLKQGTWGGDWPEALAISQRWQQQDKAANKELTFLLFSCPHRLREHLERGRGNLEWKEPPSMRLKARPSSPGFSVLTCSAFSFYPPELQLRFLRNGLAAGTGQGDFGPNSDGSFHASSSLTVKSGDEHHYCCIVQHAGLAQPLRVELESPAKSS
T1 sequence (P61769 21-119 limits assumed, chain 2 of 2): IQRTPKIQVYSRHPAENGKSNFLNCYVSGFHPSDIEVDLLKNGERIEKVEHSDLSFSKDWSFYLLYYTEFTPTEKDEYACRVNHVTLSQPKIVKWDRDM
Chain of recombinant mouse FcRn (Q61559 22-297): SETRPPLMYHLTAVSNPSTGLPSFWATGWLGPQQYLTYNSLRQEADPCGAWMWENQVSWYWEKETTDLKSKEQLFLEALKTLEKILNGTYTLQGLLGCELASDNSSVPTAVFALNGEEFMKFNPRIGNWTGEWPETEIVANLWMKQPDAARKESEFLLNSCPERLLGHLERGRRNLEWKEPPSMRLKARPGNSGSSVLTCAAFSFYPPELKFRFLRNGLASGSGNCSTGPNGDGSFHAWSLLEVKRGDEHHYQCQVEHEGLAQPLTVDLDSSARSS
T3 sequence (P08637 17-208 F176V limits assumed): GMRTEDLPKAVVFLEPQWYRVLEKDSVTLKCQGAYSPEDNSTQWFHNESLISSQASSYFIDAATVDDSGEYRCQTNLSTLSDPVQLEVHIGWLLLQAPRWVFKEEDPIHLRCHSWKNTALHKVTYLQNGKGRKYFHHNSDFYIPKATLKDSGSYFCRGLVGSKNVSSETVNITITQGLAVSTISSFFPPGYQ
Chain of recombinant monkey FcRn (monkey) (Q8SPV9 24-297, chain 1 of 2): as the sequence (P55899 24-297 limits assumed, chain 1 of 2) above, with N39D, E44Q, G99S, S189G, S190N, L217M, S269T counted along it
Chain of recombinant monkey FcRn (monkey) (Q8SPW0 21-119, chain 2 of 2, further chain): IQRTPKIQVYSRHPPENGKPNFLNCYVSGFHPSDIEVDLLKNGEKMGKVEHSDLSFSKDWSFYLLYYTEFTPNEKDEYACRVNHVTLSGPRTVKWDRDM
T2 sequence (P08637 17-208 limits assumed): as the sequence (P08637 17-208 F176V limits assumed) above, with V160F counted along it

B1: Fc variant F3-9 (SEQ ID No. 20; L432M/H433P/N434F) (other)
chain: DKTHTCPPCPAPELLGGPSVFLFPPKPKDTLMISRTPEVTCVVVDVSHEDPEVKFNWYVDGVEVHNAKTKPREEQYNSTYRVVSVLTVLHQDWLNGKEYKCKVSNKALPAPIEKTISKAKGQPREPQVYTLPPSRDELTKNQVSLTCLVKGFYPSDIAVEWESNGQPENNYKTTPPVLDSDGSFFLYSKLTVDKSRWQQGNVFSCSVMHEAMPFHYTQKSLSLSPGK
Consider B1, for which the equilibrium dissociation constant (Kd) (commonly the equilibrium constant for the complex coming apart) in assay [1] is 3.63 nM.

B2: Fc variant H11+A4 (SEQ ID No. 22; T307N/V308P/L309Y/H433R/N434W), Fc monomer (other)
chain: DKTHTCPPCPAPELLGGPSVFLFPPKPKDTLMISRTPEVTCVVVDVSHEDPEVKFNWYVDGVEVHNAKTKPREEQYNSTYRVVSVLNPYHQDWLNGKEYKCKVSNKALPAPIEKTISKAKGQPREPQVYTLPPSRDELTKNQVSLTCLVKGFYPSDIAVEWESNGQPENNYKTTPPVLDSDGSFFLYSKLTVDKSRWQQGNVFSCSVMHEALRWHYTQKSLSLSPGK
notes: also called 22b
With B2, the Kd was 0.615 nM in assay [2]; 0.801 nM in assay [3]; 0.791 nM in assay [4]; 241 nM in assay [5]; 205 nM in assay [6]; 0.288 nM in assay [1].
